The record followed here is patent US7101851 (dated 2006).

Bridges are numbered along the chain shown (N, C = ends). Where no end group is shown, it is not given here. Where only a bound is given, the exact number is not on record here.

Experiment [1] addresses T1, extracellular domain of the alpha subunit of the human FcεRI (aa 1-176), produced in baculovirus infected … (human, UniProt P12319 26-201, N-linked carbohydrate (NAG on Asn21 seen in the crystal); derivatised with PDEA for thiol coupling to the chip in the biosensor assay).
T1 construct: range 1-176; Residues 1-176 are probably counted without the signal peptide; also called FcεRIα; soluble FcεRI
T1 sequence (looked up): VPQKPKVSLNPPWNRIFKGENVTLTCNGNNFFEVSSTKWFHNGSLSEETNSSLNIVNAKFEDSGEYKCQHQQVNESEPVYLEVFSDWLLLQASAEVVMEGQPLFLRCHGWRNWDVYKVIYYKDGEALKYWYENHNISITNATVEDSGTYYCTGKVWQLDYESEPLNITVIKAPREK
Nature of the experiment: SPR biosensor (BIAcore), peptide over immobilized FcεRIα, steady-state saturation curve, 4-parameter fit. The procedure: *peptide is a dimer. SEQ ID NO: describes each monomer of the dimer. "ava" = amino-valeric acid Several peptides were also tested in a direct-binding assay using a surface plasmon resonance biosensor (Lofas & Johnsson, *J. Chem. Soc. Commun.* 21, 1526–1528 (1990)). FcεRIα, produced in baculovirus infected insect cells, was immobilized by the surface thiol method (BIAcore Methods Manual Supplement 5a, BIAcore, Inc., Piscataway, N.J.). Briefly, receptor was reacted with 2-(2-pyridinyldithio)ethaneamine hydrochloride (PDEA; Natake & Swaisgood, *J. Biochem.* 74, 77–86 (1973)), desalted into 10 mM sodium acetate (pH 4.8) and stored in aliquots at −80° C. Thawed PDEA-receptor was injected over carboxymethyl-dextran (B1 or CM5, BIAcore, Inc.) biosensor chips preactivated with N-ethyl-N'-(3-dimethylaminopropyl)-carbodiimide hydrochloride (EDC) and N-hydroxysuccinimide (NHS), cystamine, and DTT. Following coupling, reactive groups on the chip were quenched with PDEA and ethanolamine. Serial dilutions of peptide in running buffer (phosphate-buffered saline containing 0.05% Tween-20, 0.01% sodium azide) were injected over the immobilized receptor, and the net amount of peptide bound at steady-state was measured as the net change in response (RU) at a point just prior to termination of peptide injection, compared to a running-buffer baseline. Binding affinities (Table 10) are reported as the midpoint ($EC50$) of a 4-parameter fit to the peptide saturation curve. In the case of IGE134 (SEQ ID NOS:), the value shown indicates the Kd calculated from the rate constants, $kon$ and $koff$. The results of binding assays (Table 8) correlate well with those of inhibition assays (Table 7).

Experiment [2] addresses T2, FcεRI-IgG (UniProt P12319 26-205).
T2 construct: extracellular domain; Produced from CHO cells (Genentech); also called FcεRI-Fc; bivalent fusion protein of the extracellular domain of FcεRI and the Fc domain of IgG; not shown: Fc domain of IgG
T2 sequence (looked up): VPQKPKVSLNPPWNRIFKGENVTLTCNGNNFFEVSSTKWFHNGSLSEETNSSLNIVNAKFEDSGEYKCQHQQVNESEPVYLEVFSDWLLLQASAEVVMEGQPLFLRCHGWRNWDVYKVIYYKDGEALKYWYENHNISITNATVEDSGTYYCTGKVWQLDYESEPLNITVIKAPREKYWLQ
Nature of the experiment: competitive phage ELISA: g3 peptide-phage on immobilized FcεRI-IgG, soluble FcεRI-IgG titrated. The source says: Peptide sequences from g8p-fused phage clones that specifically bound FcεRI-IgG were transferred onto a g3p-display format for monovalent phage display (Bass et al., *Proteins* 8, 309–314 (1990); Lowman et al., *Biochemistry* 30, 10832–10838 (1991)). An oligonucleotide encoding for each desired peptide with additional 5' and 3' base pair that overlapped with g3 was synthesized. This oligonucleotide was annealed with a g3 single stranded DNA phagemid template. The mutagenesis reaction was transformed into XL-1 Blue *E. coli* and plated on LB-carb+ agar plates. Individual colonies were propagated in 5 mL of 2YT broth, tetracycline, carbenicillin and VCSM13 helper phage (Stratagene). Single stranded DNA was isolated from the purified phage particles and sequenced to confirm the insertion of the phage peptide sequence. 25 mL preparations of g3 phage clones were propagated overnight and purified by PEG precipitation. After resuspension of the phage pellet in 1.0 mL of PBS, it was serially diluted 1/3 and incubated with immobilized FcεRI-IgG 2 ug/mL in a 96 well Maxisorp microtiter plate for 1 hour at room temperature. The wells were washed 10× with PBST then incubated with 100 uL of anti M13 phage HRP as described above. An OD(492) value corresponding to less than 50% binding was selected and the purified phage clones were diluted to yield this normalized level of signal. […] The mixture was then transferred to 96 well microtiter dishes containing immobilized FcεRI-IgG. After a 1-hour incubation period, the plates were washed 10 times, incubated with anti M13-HRP conjugated antibody and developed with OPD as described above.

Experiment [3] addresses T3, alpha subunit of the human FcεRI receptor expressed on cells (human, UniProt P12319 26-257).
T3 construct: whole, on cells; on rat basophil RBL-48 cells in the histamine release assay; also called CHO FcεRI+ cells; cell surface expressed FcεRI
T3 sequence (looked up): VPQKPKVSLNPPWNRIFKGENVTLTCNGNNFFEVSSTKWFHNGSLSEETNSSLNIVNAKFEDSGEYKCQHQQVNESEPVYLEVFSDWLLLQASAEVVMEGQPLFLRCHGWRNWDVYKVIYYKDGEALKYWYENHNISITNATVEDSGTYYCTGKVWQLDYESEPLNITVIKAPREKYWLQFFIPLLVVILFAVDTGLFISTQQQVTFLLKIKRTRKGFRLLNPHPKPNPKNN
As to the kind of experiment: IgE inhibition assay (Table 9).

B1: IGE132 (peptide)
peptide: VQCPHFCYVGGHALCPDVCYVGR-OH
modifications: cysteine pairing not given here
notes: produced biosynthetically as a fusion to the Z-domain of protein A and cleaved off with trypsin; free C-terminus
Consider B1, for which the EC50 in experiment [1] amounted to 680 nM.

B2: g3b.1 peptide-phage (peptide)
peptide: NLPRCTEGPWGWVCMAAD
modifications: disulfide 5-14 (inferred); not fully specified
notes: not shown: fused to M13 gene-3 protein (g3p) on phage
The molecule B2 had an IC50 in experiment [2] of 13 nM. This lies in the double-digit nanomolar range.

B3: g3b.3 peptide-phage (peptide)
peptide: NLPTCTEGPWGWVCMAAD
modifications: not fully specified (bridges); cysteine pairing not given here
notes: as for B2
In experiment [2], B3 had an IC50 of 7 nM. This IC50 lies about 1.9-fold lower than the previous one.

B4: IGE150 (peptide)
peptide: VQCPHFCYVGGKALCPDVCDV-NH2
modifications: disulfide (positions not given here); also: two intramolecular disulfide bonds, pairing not given here
notes: Y20D of IGE122
As to B4, in experiment [3], the “fold loss in activity” value was about 5 fold.

B5: IGE131 (peptide)
peptide: VQCPHFCYVGGKVQCPHFCYV-NH2
modifications: disulfide (positions not given here); not fully specified (bridges); also: oxidized, disulfide-bonded Cys, pairing not given here
In experiment [1], B5 displayed an EC50 of 2300 nM.

B6: g3b.8 peptide-phage (peptide)
peptide: GRTECTEGPWGWVCMAAD
modifications: not fully specified (bridges); cysteine pairing not given here
notes: as for B2
In experiment [2], B6 came in with an IC50 of 14 nM.

B7: IGE142 (peptide)
peptide: VQCAHFCYVGGHALCPDVCYVGR
modifications: disulfide (positions not given here); also: two intramolecular disulfide bonds, pairing not given here
notes: P4A of IGE132; made in E. coli as a Z-domain fusion and cleaved with trypsin
For B7, the “fold reduced activity against its control peptide” value in experiment [3] is over 100 fold.

B8: g3b.7 peptide-phage (peptide)
peptide: DLPACTEGPWGWVCMAAD
modifications: not fully specified; cysteine pairing not given here
notes: as for B2
B8 came in with an IC50 in experiment [2] of 9 nM.

B9: g3b.5 peptide-phage (peptide)
peptide: AMAQCTEGPWGWVCMAAD
modifications: not fully specified; cysteine pairing not given here
notes: as for B2
In experiment [2], B9 yielded an IC50 of 10 nM.
With Ac-CPHFCYFGAELCPDVCY-NH2 (disulfide (positions not given here)) [IGE171], in experiment [3], the “fold difference in activity against IGE167” value was at most 2 fold.

B10: IGE131 (peptide)
peptide: VQCPHFCYVGGKVQCPHFCYV-NH2
modifications: disulfide 3-15, 7-19
notes: The text speaks of it as D17H against IGE122
Consider B10, for which the “fold reduced activity against IGE122” value in experiment [3] was over 10 fold.
On to IVCARLCYVGGKALCPDVCYV-NH2 (disulfide 3-15, 7-19, P4A of IGE120) [IGE127], for which the “fold reduced activity against its control peptide” value in experiment [3] turned out to be 50 fold.

B11: g3b.6 peptide-phage (peptide)
peptide: GRAQCTEGPWGWVCMAAD
modifications: not fully specified (bridges); cysteine pairing not given here
notes: as for B2
On to B11, for which the IC50 in experiment [2] stood at 16 nM.

B12: IGE155 (peptide)
peptide: CPHFCYELDYELCPDVCY-NH2
modifications: disulfide (positions not given here); also: two intramolecular disulfide bonds, pairing not given here
As for B12, the “fold difference in activity against IGE134” value in experiment [3] was at most 2 fold.

B13: IGE130 (peptide)
peptide: ALCPDVCYVGGKVQCPHFCYV-NH2
modifications: disulfide 7-15, 3-19; N-terminus assumed
SMILES: CC(C)C[C@H](NC(=O)[C@H](C)N)C(=O)N[C@H]1CSSC[C@@H](C(=O)N[C@@H](Cc2ccc(O)cc2)C(=O)N[C@H](C(N)=O)C(C)C)NC(=O)[C@H](Cc2ccccc2)NC(=O)[C@H](Cc2c[nH]cn2)NC(=O)[C@@H]2CCCN2C(=O)[C@@H]2CSSC[C@H](NC(=O)[C@H](C(C)C)NC(=O)[C@H](CC(=O)O)NC(=O)[C@@H]3CCCN3C1=O)C(=O)N[C@@H](Cc1ccc(O)cc1)C(=O)N[C@@H](C(C)C)C(=O)NCC(=O)NCC(=O)N[C@@H](CCCCN)C(=O)N[C@@H](C(C)C)C(=O)N[C@@H](CCC(N)=O)C(=O)N2
Regarding B13, in experiment [1], the EC50 is 250 nM.
With VQCPHFCYFGGAELCPGVCYV-NH2 (disulfide 3-15, 7-19) [IGE136], the “fold difference in activity against IGE135” value in experiment [3] was about 2 fold.

B14: g3b.4 peptide-phage (peptide)
peptide: VMPTCTEGPWGWVCMAAD
modifications: not fully specified (bridges); cysteine pairing not given here
notes: as for B2
B14 displayed an IC50 in experiment [2] of 7 nM.
Regarding CPHFCYFGAELCPDVCY-NH2 (disulfide (positions not given here)) [IGE170], the “fold difference in activity against IGE167” value in experiment [3] was at most 2 fold.
For the molecule IVCPRLCYELDYELCPDVCYV-NH2 (disulfide 3-15, 7-19) [IGE141], the “fold difference in activity against IGE120” value in experiment [3] came out at 2 fold.
